Patent US20090253131A1, “HYBRID FUSION REPORTER AND USES THEREOF” (Promega Corporation, priority 2007, published 2009)
Changes are numbered by the printed parent chain. Numbers in names are those of the source.

B1: H11YL: second generation DhaA.H272F mutant, H11 recombined with Y273L (SEQ ID NO:3) (protein)
chain: SEIGTGFPFDPHYVEVLGERMHYVDVGPRDGTPVLFLHGNPTSSYLWRNIIPHVAPSHRCIAPDLIGMGKSDKPDLDYFFDDHVRYLDAFIEALGLEEVVLVIHDWGSALGFHWAKRNPERVKGIACMEFIRPIPTWDEWPEFARETFQAFRTADVGRELIIDQNAFIEGALPMGVVRPLTEVEMDHYREPFLKPVDREPLWRFPNELPIAGEPANIVALVEAYMNWLHQSPVPKLLFWGTPGVLIPPAEAARLAESLPNCKTVDIGPGLFLLQEDNPDLIGSEIARWLPAL
modifications: A synthetic mutant dehalogenase sequence
B2: DhaA.D106C: DhaA with Asp106 replaced by Cys (protein, UniProt P0A3G2 1-293, looked up, variant D106C)
Haloalkane dehalogenase: MSEIGTGFPFDPHYVEVLGERMHYVDVGPRDGTPVLFLHGNPTSSYLWRNIIPHVAPSHRCIAPDLIGMGKSDKPDLDYFFDDHVRYLDAFIEALGLEEVVLVIHCWGSALGFHWAKRNPERVKGIACMEFIRPIPTWDEWPEFARETFQAFRTADVGRELIIDQNAFIEGALPKCVVRPLTEVEMDHYREPFLKPVDREPLWRFPNELPIAGEPANIVALVEAYMNWLHQSPVPKLLFWGTPGVLIPPAEAARLAESLPNCKTVDIGPGLHYLQEDNPDLIGSEIARWLPAL
B3: DhaA.H272F: Rhodococcus rhodochrous dehalogenase DhaA with His272 replaced by Phe (protein, UniProt P0A3G2 1-293, looked up, variant H272F)
Haloalkane dehalogenase: B2 Haloalkane dehalogenase with C106D, H272F
B4: YC: DhaA.H272F based mutant Y273C (protein, UniProt P0A3G2 1-293, looked up, variant H272F Y273C)
Haloalkane dehalogenase: B2 Haloalkane dehalogenase with C106D, H272F, Y273C
B5: DhaA.D106C:H272F: DhaA double mutant D106C and H272F (protein, UniProt P0A3G2 1-293, looked up, variant D106C H272F)
Haloalkane dehalogenase: B2 Haloalkane dehalogenase with H272F
B6: YL: DhaA.H272F based mutant Y273L (protein, UniProt P0A3G2 1-293, looked up, variant H272F Y273L)
Haloalkane dehalogenase: B2 Haloalkane dehalogenase with C106D, H272F, Y273L
B7: DhaA.D106E: DhaA single mutant D106E (protein, UniProt P0A3G2 1-293, looked up, variant D106E)
Haloalkane dehalogenase: B2 Haloalkane dehalogenase with C106E
B8: YM: DhaA.H272F based mutant Y273M (protein, UniProt P0A3G2 1-293, looked up, variant H272F Y273M)
Haloalkane dehalogenase: B2 Haloalkane dehalogenase with C106D, H272F, Y273M

Legend:
[1] = Kinetic labeling studies of purified DhaA mutants, fluorimage gel analysis; type: biochemical; details: fluorimaged gel, 10 ng protein, refined time-course
Method: Preliminary kinetic labeling studies were performed using several DhaA.H272F derived mutants. […] A more expanded time course analysis was performed on the DhaA.H272F A7 and the two second generation DhaA.H272F mutants A7YM and H11YL. […] The fluorescent bands on gel were quantitated and the relative rates of product formation determined. In order to determine a labeling rate, the concentration of the H11YL was reduced from 50 ng to 10 ng and a more refined time-course was performed. Under these labeling conditions a linear initial rate could be measured. Quantitation of the fluorimaged gel data allowed second order rate constants to be calculated.

[2] = Fluorescence polarization (FP) labeling kinetics of purified DhaA mutants, TMR substrate; type: biochemical
Description: (§1) Fluorescence polarization (FP) is ideal for the study of small fluorescent ligands binding to proteins. It is unique among methods used to analyze molecular binding because it gives direct nearly instantaneous measure of a substrate bound/free ratio. Therefore, an FP assay was developed as an alternative approach to fluorimage gel analysis of the purified DhaA mutants.
(§2) Based on the sensitivity and truly homogenous nature of this assay, FP was used to characterize the labeling properties of the purified DhaA mutants with the fluorescently coupled substrates. The data from these studies was then used to calculate a second order rate constant for each DhaA mutant-substrate pair.

[3] = FP
Description: as §1, §2

[4] = molecular target: T1, rapamycin-mediated FRB/FKBP protein-protein interaction (Homo sapiens, UniProt P42345+P62942); experiment: Protein complementation labeling (PCL) in vitro with HT2 fragments, rapamycin-mediated FRB/FKBP; type: biochemical; details: with or without 1 μM rapamycin, 0.1 μM TMR ligand 2 hours
T1 construct: made in house; host or cells: cell-free: RiboMax transcription, Wheat Germ Plus translation
Method: The rapamycin-mediated FRB/FKBP protein-protein interaction and a mutant DhaA were employed in a PCL. FRB and FKBP will only interact when rapamycin is present. Therefore, if PCL is successful, the reconstituted reporter is labeled only when the fusion proteins are incubated together in the presence of rapamycin.
Two pF9 (Kan) vectors were generated which contained either FRB or FKBP ORF plus the linker sequence (GlyGlyGlyGlySer)2 upstream of the SgfI/PmeI sites. A mutant DhaA gene (HT2) at positions corresponding to those useful to prepare Renilla luciferase fragments for PCS (see Example 2 and FIG. 7) with FRB-N-terminal and FKBP-C-terminal fusions. HT2 N- and C-termini halves were amplified using PCR primers and cloned into the SgfI/PmeI sites. PCL was performed in vitro by expressing each clone individually using RiboMax followed by Wheat Germ Plus reactions (HT2). Protein was expressed with or without FluoroTect™. FluoroTect™ labeling ensured that all proteins were expressed in approximately equal amounts (data not shown). Unlabeled proteins were then incubated alone or with the appropriated partner with or without 1 μM rapamycin. Ten μl of these products were then incubated with 0.1 μM of a TMR labeled ligand for the mutant dehalogenase, for 2 hours in the dark. […]

[5] = test system: CHO cells; experiment: Protein complementation labeling (PCL) with HT2 in transiently transfected CHO cells; type: cell-based; details: +/−1 μM rapamycin 2.5 hours, 1.0 μM HaloTag TMR ligand 1 hour
Method: For transient transfections, CHO cells were plated in a 6 well plate and transfected in duplicate using TransIT®-CHO. The next day, cells were incubated +/−1 μM rapamycin for 2.5 hours followed by 1.0 μM HaloTag® TMR ligand for 1 hour. Cells were washed in PBS, trypsinized, pelleted and mechanically lysed in 200 ul PBS with protease inhibitor and RQDNase I. Normalized amounts of proteins were microwaved for 30 seconds on high and run on a denaturing NuPAGE® gel.

[6] = Binding of DhaA mutants to carboxytetramethylrhodamine chloroalkane substrate
Method: DhaA.H272 mutants, i.e. H272F/G/A/Q, bound to carboxytetramethylrhodamine-C10H21NO2—Cl.
A control mutant, DhaA.D106Q, single mutants DhaA.D106C, DhaA.D106Y, and DhaA.D106E, as well as double mutants DhaA.D106C:H272F, DhaA.D106E:H272F, DhaA.D106Q:H272F, and DhaA.D106Y:H272F were analyzed for binding to carboxytetramethylrhodamine-C10H21NO2—Cl. Carboxytetramethylrhodamine-C10H21NO2—Cl bound to DhaA.D106C, DhaA.D106C:H272F, DhaA.D106E, and DhaA.H272F. Thus, the bond formed between carboxytetramethylrhodamine-C10H21NO2—Cl and cysteine or glutamate at residue 106 in a mutant DhaA is stable relative to the bond formed between carboxytetramethylrhodamine-C10H21NO2—Cl and DhaA.WT. Other substitutions at position 106 alone or in combination with substitutions at other residues in DhaA may yield similar results. Further, certain substitutions at position 106 alone or in combination with substitutions at other residues in DhaA may result in a mutant DhaA that forms a bond with only certain substrates.

[7] = MagneGST-based labeling assay of DhaA mutants, biotin substrate; type: biochemical
Description: An automated MagneGST™-based assay was used to screen the DhaA mutant protein libraries. […] The hits identified by the initial primary screen were located in the master plates, consolidated, re-grown and reanalyzed using the MagneGST™ assay.
In order to distinguish these recombined protein mutants from the mutants identified in round one of screening (first generation), they are referred to as “second generation” DhaA mutants.

T1 sequence (P42345 2012-2144 limits assumed): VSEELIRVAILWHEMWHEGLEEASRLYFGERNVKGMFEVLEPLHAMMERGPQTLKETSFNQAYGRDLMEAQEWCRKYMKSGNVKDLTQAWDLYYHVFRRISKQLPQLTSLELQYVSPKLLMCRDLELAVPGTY
T1 sequence (P62942 whole entry, the tested form may be a part): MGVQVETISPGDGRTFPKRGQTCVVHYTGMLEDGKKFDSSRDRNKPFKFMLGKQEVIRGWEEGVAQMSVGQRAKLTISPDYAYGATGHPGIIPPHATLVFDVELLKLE

Row | Molecule | binding to carboxytetramethylrhodamine-C10H21NO2—Cl [6] | improvement over the parental clones using the biotin-PEG4-14-Cl substrate [7] | further results
1 | B1 | – | – | second order rate constant for carboxytetramethylrhodamine-C10H21NO2—Cl labeling [1]: 500000 M⁻¹ s⁻¹; second order rate constant with carboxytetramethylrhodamine-C10H21NO2—Cl [2]: 2.2e+06 M⁻¹ s⁻¹; carboxyfluorescein-C10H21NO2—Cl labeling rate slower/lower than carboxytetramethylrhodamine-C10H21NO2—Cl labeling rate [3]: 100 fold; TMR labeling [4]: labeled; TMR labeling in CHO cells [5]: labeled irrespective of rapamycin addition
2 | B2 | bound | – | –
3 | B3 | bound | – | fold more protein required in the reaction to obtain measurable rates ([2]; relative to DhaA.H272F H11YL): ~420 fold
4 | B4 | – | significantly improved | –
5 | B5 | bound | – | –
6 | B6 | – | significantly improved | –
7 | B7 | bound | – | –
8 | B8 | – | significantly improved | –
